Assay results as given in the supplement of paper PMC9170038.

Test system: MS2 coat protein
Test: apparent KD of MS2 coat protein; designed switch direction (-1 OFF switch, 1 ON switch): -1; higher = weaker reporter binding
Procedure, shortened: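 Designed RNA switches with common flanks were transcribed on Illumina chips by stalled E. coli RNA polymerase and titrated with SNAP-549-labelled MS2 coat protein, from 0.7 or 1.5 nM doubling to 3 µM, in Tris-HCl pH 7.5 buffer with KCl, MgCl2, BSA, DTT, tRNA and Tween-20. Steps lasted 0.8–1.5 h (lowest) to 10–20 min (highest). Titrations ran without input, with 200 uM small-molecule ligand, or with an oligonucleotide input. Normalised cluster fluorescence was curve-fitted, and apparent KD is the per-design median over clusters.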

[1] = input ligand: microRNA oligo, concentration not stated
[2] = Eterna round: R95, input ligand: FMN 200 uM
[3] = Eterna round: R95, input ligand: microRNA oligo, concentration not stated
[4] = Eterna round: R95, input ligand: none

Sequence	apparent KD of MS2 coat protein (input ligand: FMN 200 uM)	apparent KD of MS2 coat protein [1]	apparent KD of MS2 coat protein (input ligand: none)	apparent KD of MS2 coat protein [2]	apparent KD of MS2 coat protein [3]	apparent KD of MS2 coat protein [4]
ACAUGAGGAUCACCCAUGUAAUCAUGAUGGCUGAUGUAGAGUCAGGAUAUGUGUGGCUUUCUAUCGCAGAAGGGACAAGACUGG [Deportation 35 - Jieux - Exclusion NG 3] (Eterna round: R96, puzzle: Exclusion NG 3)	45.6 nM	37.7 nM	43.4 nM			
AUGUACCGAAGAAGUUGUAACAUGAGGAUCACCCAUGUCGAAGUGAGGACAGGGAAGAGAAGCUGUGCUCGUCAUAG [Eternabot (L2) Solution 17] (Eterna round: R97, puzzle: Sensor, turn-off variant 1)	71.6 nM		77.9 nM			
UCAUACGAUGAGGAUAUCUCAGUUAAAGUAUUUAGAGAAGGCGUUACAUGAGGAUCACCCAUGUUUGUGGGCAG [Ex-6 Malc#8] (puzzle: Exclusion 6)				99.1 nM	93.9 nM	136 nM
GAUUAUGCGAGCUUUAGGGACAUGAGGAUCACCCAUGUUCGUCUUAUUAGUCUAGGUACACUGACAUACCUAAAUCU [JMF 67] (puzzle: Sensor v3, turn-off variant 1)				22.7 nM	33.1 nM	23.6 nM
CGUCUGUUAGGAUAUGACCCGCGUACCGUGUCGAGCCGGGUUCAGAAGGAACAUGAGGAUCACCCAUGUGAGAA [Eternabot (L1) Solution 12] (Eterna round: R97, puzzle: Exclusion 4)	163 nM		27.3 nM			
ACAUGUCAUUGAGGAUAUUGCACACAUGAGGAUCACCCAUGUAUACGGAUGCUCUUACGUGAGUUCGAGAAGGCGAUGUACAUU [Ex NG2 #89] (Eterna round: R96, puzzle: Exclusion NG 2)	290 nM	121 nM	160 nM			
GCACGAAGUGUAGGAUAUCUGUGCGAUUAGCUCAGAGAAGGACACAUGAGGAUCACCCAUGUGUUCCAAUACCCAAAUACGUGC [Eli exng1 - 061] (Eterna round: R96, puzzle: Exclusion NG 1)	11 nM	7.69 nM	11.3 nM			
GACCUCCCUGUAAGGAUAUCCAUGCAUCAAAGCAAGGAGAAGGUACAUGAGGAUCACCCAUGUCACCCGCGUUA (Eterna round: R97, puzzle: Brourd's mod of Exclusion 4)	23.1 nM		15.4 nM			
ACAAGCUUGUAAUGAUUGAACAUGAGGAUCACCCAUGUAAAUGGAAGAACCAACUUGAUAUGAUUUACUCGUCUUAU [JR_STOV1_Sub011] (Eterna round: R97, puzzle: Sensor, turn-off variant 1)	676 nM		546 nM			
AAAAAACAUGAGGAUCACCCAUGUUAGGAUAUGCUAUGGAAAAUAAAAAAUAAACAUAGCAGAAGGAACAAAAA [Mat - Exclusion 1 - Eli mod - D30] (Eterna round: R96, puzzle: Exclusion 1)		33.2 nM				
UAUUUACAUGAGGAUCACCCAUGUCAGGAUAUGUUUCUAUCGUCGAAAGACGAUAUUUGCAGAAGGGACAAUAU [LRO-Excl01-26 mod derived from EliFisker 4.24] (Eterna round: R97, puzzle: Exclusion 1)	64.4 nM		27.9 nM			
UAAAAGUGAGGAUAUCCAAUAUAUGACAUGAGGAUCACCCAUGUUUCCACUCGUACCUCCGGAGAAGGCACAAAAU [Ex5 #60] (Eterna round: R97, puzzle: Exclusion 5)	25.2 nM		28.6 nM			
AAAUUAGCAAGUAGGUCCGACAUGAGGAUCACCCAUGUUAUCUGAAAUAACGCAGCAUGAUUGUGCGCUCGUCUUAG [Sensor-V1 #7] (Eterna round: R97, puzzle: Sensor, turn-off variant 1)	67.6 nM		68.6 nM			
CACCGUUAGAGAGGAUAUCGUACAUGAGGAUCACCCAUGUAAUAAAUGAGAAUUUCGGAUGUCUGCGAGAAGGCUCGAAUCGGC [Ostracism 32 - Jieux - Exclusion NG 2] (Eterna round: R96, puzzle: Exclusion NG 2)		23 nM				
AUGAGGUGAGGAUAUACGAGAUGAUAUUGCAGAGCAAGUCAGUAGAAGGCACAUGAGGAUCACCCAUGUUCGGG [Eternabot (L2) Solution 93] (Eterna round: R97, puzzle: Exclusion 4)	269 nM		397 nM			
CACCGUUACAGAGGAUAUCGUACAUGAGGAUCACCCAUGUAAUAAAUGAGAAUUUCGGAUGUAUGCGAGAAGGCUGGAAUCGGC [Ostracism 37 - Jieux - Exclusion NG 2] (Eterna round: R96, puzzle: Exclusion NG 2)		20.7 nM				
CCCGCAGGCUUUUUGCUCGACAUGAGGAUCACCCAUGUUGUAUGGGUUGUGUGUGUGUGGUGCAUAUAUAUGGUCCU [-25.6, -50.1 kcal, A 16%] (Eterna round: R97, puzzle: Sensor, turn-off variant 1)	313 nM		469 nM			
GACCUCAGUCAGGAUAUAGAUAGCGAUAGCGAAUUAGAAGGGACCACAUGAGGAUCACCCAUGUUAGUAUCAUU [Eternabot (L2) Solution 10] (Eterna round: R97, puzzle: Exclusion 6)	38.9 nM		34.2 nM			
CCAGAGAGCGAAGGAUAUUCUGUUCAAUGGGUCGACCUAGACAUGAGGAUCACCCAUGUCGCCCGGGAGAAGGUCGCAAGGAUC [Eternabot solution 18] (Eterna round: R96, puzzle: Exclusion NG 2)	18.7 nM	13.3 nM	18.4 nM			
UAUGGUUAAGUCAGGAUAUGCACGAAGAGAUCAAUGCAGAAGGGACAUGAGGAUCACCCAUGUAAAGUCGUGUU [Ex4 #74] (Eterna round: R97, puzzle: Brourd's mod of Exclusion 4)	55.1 nM		27.7 nM			
AGUAGGUCUACCUUGGUGGAUCUGCAUUUAGGCAGGUGUACAUGAGGAUCACCCAUGUCCUCAUUUGCUCGUCUUAU [JL turnoff v2 99.29] (puzzle: Sensor v3, turn-off variant 2)				807 nM	488 nM	952 nM
CCUGUACAUGAGGAUCACCCAUGUUAGGAUAUCUCGCCGUCGGCUUGCCGACGGUAUUAGAGAAGGGACAAGGG [JL Tixe mod 4] (puzzle: Exclusion 1)					31 nM	
CAGUUCCAGGGAGGAUAUCCGAAAGGAAGUGUAGGAGAAGGCCCAAACUGAAAACACAUGAGGAUCACCCAUGUAGGUGUUCUC [PowerStrip EXNG 1.20] (Eterna round: R96, puzzle: Exclusion NG 1)	1320 nM	656 nM	659 nM			
CGGCGGGCAGGAUAUGGAAAUAAUAACAUGAGGAUCACCCAUGUAAAUAAAUGGGAAUAACCAGAAGGGCUUGUUG [-18.2, -17.7 kcal, A 37%] (Eterna round: R97, puzzle: Exclusion 5)	49.7 nM		90.9 nM			
CUGAUGGACUAGGAUAUCCUCAUCGAUCAGGGAGGAGAAGGAGUCACAUGAGGAUCACCCAUGUGAUGGUAAAA [Atqubi] (puzzle: Exclusion 6)				14.9 nM	11.9 nM	13.6 nM
